Assay results reported in the supplement of paper PMC12042874.
± gives the uncertainty stated by the source.

Assay: amyloid nucleation score (Sup35N fusion, yeast selection) (log enrichment); library NNK2; higher = more nucleation; inactive = no reads after selection
Summary of the method: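 Nucleation score: DiMSum log enrichment of output over input reads, centred on the mode score of non-aggregating sequences. Only sequences with at least 100 input reads were kept. Reads came from Illumina sequencing of plasmid inserts before and after 7 days of growth at 30°C without adenine and uracil, in psi-negative yeast expressing Sup35N fused to peptides of 20 random codons after 24 hours of induction with 100 μM copper sulfate.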

Substance | amyloid nucleation score
NRIFGTHLTFSGYS | -0.466 ± 0.5
NRLPFKYLSIDIYPCLASLA | -0.3 ± 0.26
NRMFLLVLFVEL | 0.572 ± 0.27
NRSDPDLCNKC | 1.96 ± 0.14
NRSIVYGYFQLYENFNWPFS | 0.913 ± 0.19
NRSVCLYYFAQVYKCCSNAV | 3.42 ± 0.14
NRTTSVWG | -0.889 ± 1
NRVGSIPIGPVFTADVAIVL | 4.16 ± 0.091
NRVLSFPRWGAIYVYTMTEF | -0.892 ± 1.1
NRYVLCNLVVISVSGISLCT | 7.249 ± 0.063
NSAVATYCVVGQVPEK | 0.883 ± 0.44
NSEHTNLSSHLGNIRFINCL | 0.037 ± 0.79
NSFMPMTWLPFRSQTEKRGS | 3.73 ± 0.075
NSGCLSLGFRHLSNPWLHS | 2.71 ± 0.096
NSHRKNHFIGGWDFTCEIYN | inactive
NSIGPTPGGN | 0.123 ± 1
NSKTDSVHYYIDVLSPTHIF | -1.09 ± 0.78
NSLGRYSFRFVRCEGVWKTR | -0.88 ± 0.76
NSLVLFFSVGVLRL | 1.37 ± 0.21
NSMTQFCIQCGGTTIAWSMF | 6.663 ± 0.039
NSRGN | -0.293 ± 0.56
NSRLRRVYAGSARGAWTYRR | 1.14 ± 0.38

Substance | amyloid nucleation score
NSRYPDRGILKLVV | 0.409 ± 0.65
NSSMTRLGNTYLYHNNLHLV | -1.25 ± 0.76
NSSWSAPSLCLCM | 9.527 ± 0.045
NSVFKGFLNRFRF | 2.32 ± 0.19
NSVRSV | inactive
NSWWTVLFRFYKALSLPRAR | -0.839 ± 0.78
NTCMLRARVSVMQNEE | 0.071 ± 0.35
NTIQCY | inactive
NTITIMHSDEYVMRVSYICQ | 1.87 ± 0.2
NTLYSFVRGCKPRMEFNRVK | -0.965 ± 1
NTMELLFIGVWIAFWLN | inactive
NTTSARSERR | -0.212 ± 0.37
NVAMSCPRGRVPR | 1.35 ± 0.38
NVCRVDMAEKFGSFRLCN | -0.846 ± 0.34
NVFMRYTKFYMCLELGNCWG | -0.331 ± 0.5
NVLDVGVGRTFVFK | -0.291 ± 0.79
NVLLNQNIMVLPGPLYFSIT | 6.129 ± 0.054
NVMFF | 1.28 ± 0.13
NVPCGYEWSFNLCIMGEASS | 6.842 ± 0.049
NVPKSSINEWSLPDLLVLNV | 0.923 ± 0.81
NVRSWYLDNLFLTFAVA | 0.164 ± 0.63
NVSRGTKIDNMDRVYFYPEA | -0.055 ± 0.46

Substance | amyloid nucleation score
NVVQMMSVEFMPMVHVSAIL | 4.23 ± 0.063
NVWVSDFVGERAGDLHLSLY | 0.025 ± 1.1
NVYDRGVIGYMSNNVHTEGI | -1.07 ± 1.1
NVYVESSWVLARVIWRFYFD | -0.722 ± 0.62
NWGAWLNWFNLVIYGCRVIN | 6.03 ± 0.079
NWGFISVLVALPWVWGLRPG | -0.387 ± 0.42
NWGMLLGCGGW | 0.201 ± 0.8
NWHGSIFFIW | 5.708 ± 0.049
NWLQFF | 0.966 ± 0.13
NWMCMRCGVFVVLAVCLFWS | 3.42 ± 0.075
NWSVTGCQLRGGRTEGNGIR | 0.122 ± 0.5
NWWRD | -0.071 ± 0.43
NYDGVVVEDNVVGTRTSVAG | -0.007 ± 0.36
NYDRTIW | -1.01 ± 0.48
NYEGGCGVNGVMSVPAVRNP | 0.082 ± 1
NYEGNGRVVITLLLGSNWYR | 4.04 ± 0.086
NYFCIRS | 4.11 ± 0.052
NYGVFTSIHVCYDVINVVRV | -0.661 ± 1.1
NYIESFMHSQGCNPFQDSFM | 3 ± 0.12
NYIWVLGYSEVGNTIMYTYH | 6.224 ± 0.05
NYMYGLNSVKSVGWLSDI | 0.069 ± 0.46
NYRFVCWDYISWVMVWTSI | inactive

Substance | amyloid nucleation score
NYSNFTIKYLNLKRTLLDL | -1.74 ± 0.64
NYVNICFNLKFQVRHST | 4.41 ± 0.089
PADPNCIFVIS | -1.25 ± 0.44
PAIYILLWAYSRSSACWLTA | inactive
PCCVKSELGLPQWWSVYL | 5.645 ± 0.056
PCFRWSRGRKSCECCHVGYM | 0.122 ± 0.25
PCGSCMSQNKSIG | 0.167 ± 0.31
PCITLAFPVNKSRF | -0.363 ± 1.1
PCRFTYRRWTG | -0.496 ± 0.41
PCSGSLPRTKTD | -0.167 ± 0.32
PCVPGDYTVAKVAFSTY | -0.011 ± 1.1
PCWCSVLVL | 1.51 ± 0.41
PDDCGWVLMFENQFAAAGTP | 0.122 ± 0.28
PEGISNGLK | -1.44 ± 0.55
PEQAVFTNNKYIYEVWLTTK | inactive
PFHPICVYKRPFLCPE | inactive
PFLAFRGVWNFGL | 5.1 ± 0.068
PFQSNNSEVDGSYYMSVRC | -0.705 ± 0.39
PFTMSVFKSYKIAQRSSWAW | 2.5 ± 0.089
PFWVGNGKQGVFGKFDCYVI | -1.19 ± 0.34
